Laboratory results reported in paper PMC1952217 (The EMBO Journal, 2007).

Tests used:
Experiment in all cases: FRET or BRET
[1] = target: T1, Smc3 tagged at its C-terminus with CFP or YFP (S. cerevisiae, UniProt P47037 1-1230)
T1 sequence: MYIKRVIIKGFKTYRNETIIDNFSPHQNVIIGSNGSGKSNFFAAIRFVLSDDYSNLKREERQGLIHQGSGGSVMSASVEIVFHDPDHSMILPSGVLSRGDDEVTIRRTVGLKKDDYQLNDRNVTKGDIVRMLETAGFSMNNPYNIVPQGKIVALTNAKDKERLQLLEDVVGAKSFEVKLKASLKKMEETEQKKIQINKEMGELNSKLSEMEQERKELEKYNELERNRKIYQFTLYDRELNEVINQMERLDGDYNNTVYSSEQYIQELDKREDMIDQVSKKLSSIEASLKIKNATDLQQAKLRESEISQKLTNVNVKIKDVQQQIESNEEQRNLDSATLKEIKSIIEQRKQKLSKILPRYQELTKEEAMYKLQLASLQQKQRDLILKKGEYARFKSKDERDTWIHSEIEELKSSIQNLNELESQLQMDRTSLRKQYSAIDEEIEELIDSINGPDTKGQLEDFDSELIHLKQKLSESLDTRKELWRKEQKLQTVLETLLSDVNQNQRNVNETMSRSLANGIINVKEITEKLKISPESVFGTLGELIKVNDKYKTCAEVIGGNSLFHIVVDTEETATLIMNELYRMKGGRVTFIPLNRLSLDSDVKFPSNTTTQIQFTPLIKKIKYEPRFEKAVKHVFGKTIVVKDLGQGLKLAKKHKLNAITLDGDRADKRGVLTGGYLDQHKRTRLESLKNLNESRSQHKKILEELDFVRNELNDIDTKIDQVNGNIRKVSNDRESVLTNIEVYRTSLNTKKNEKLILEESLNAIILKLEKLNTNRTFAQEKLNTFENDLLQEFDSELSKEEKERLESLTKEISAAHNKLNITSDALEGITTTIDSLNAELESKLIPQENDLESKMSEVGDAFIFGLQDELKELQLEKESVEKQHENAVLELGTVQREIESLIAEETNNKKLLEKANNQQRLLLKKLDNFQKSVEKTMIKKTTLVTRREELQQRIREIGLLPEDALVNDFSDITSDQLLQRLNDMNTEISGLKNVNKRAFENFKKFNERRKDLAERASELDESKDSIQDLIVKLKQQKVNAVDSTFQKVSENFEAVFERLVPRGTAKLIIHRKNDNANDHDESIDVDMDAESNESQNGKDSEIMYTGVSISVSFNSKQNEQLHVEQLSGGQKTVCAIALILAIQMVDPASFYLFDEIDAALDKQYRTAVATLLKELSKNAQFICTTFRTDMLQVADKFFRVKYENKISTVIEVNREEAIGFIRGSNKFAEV

[2] = target: T2, Smc1 tagged at its C-terminus with CFP or YFP (S. cerevisiae, UniProt P32908 1-1225)
T2 sequence: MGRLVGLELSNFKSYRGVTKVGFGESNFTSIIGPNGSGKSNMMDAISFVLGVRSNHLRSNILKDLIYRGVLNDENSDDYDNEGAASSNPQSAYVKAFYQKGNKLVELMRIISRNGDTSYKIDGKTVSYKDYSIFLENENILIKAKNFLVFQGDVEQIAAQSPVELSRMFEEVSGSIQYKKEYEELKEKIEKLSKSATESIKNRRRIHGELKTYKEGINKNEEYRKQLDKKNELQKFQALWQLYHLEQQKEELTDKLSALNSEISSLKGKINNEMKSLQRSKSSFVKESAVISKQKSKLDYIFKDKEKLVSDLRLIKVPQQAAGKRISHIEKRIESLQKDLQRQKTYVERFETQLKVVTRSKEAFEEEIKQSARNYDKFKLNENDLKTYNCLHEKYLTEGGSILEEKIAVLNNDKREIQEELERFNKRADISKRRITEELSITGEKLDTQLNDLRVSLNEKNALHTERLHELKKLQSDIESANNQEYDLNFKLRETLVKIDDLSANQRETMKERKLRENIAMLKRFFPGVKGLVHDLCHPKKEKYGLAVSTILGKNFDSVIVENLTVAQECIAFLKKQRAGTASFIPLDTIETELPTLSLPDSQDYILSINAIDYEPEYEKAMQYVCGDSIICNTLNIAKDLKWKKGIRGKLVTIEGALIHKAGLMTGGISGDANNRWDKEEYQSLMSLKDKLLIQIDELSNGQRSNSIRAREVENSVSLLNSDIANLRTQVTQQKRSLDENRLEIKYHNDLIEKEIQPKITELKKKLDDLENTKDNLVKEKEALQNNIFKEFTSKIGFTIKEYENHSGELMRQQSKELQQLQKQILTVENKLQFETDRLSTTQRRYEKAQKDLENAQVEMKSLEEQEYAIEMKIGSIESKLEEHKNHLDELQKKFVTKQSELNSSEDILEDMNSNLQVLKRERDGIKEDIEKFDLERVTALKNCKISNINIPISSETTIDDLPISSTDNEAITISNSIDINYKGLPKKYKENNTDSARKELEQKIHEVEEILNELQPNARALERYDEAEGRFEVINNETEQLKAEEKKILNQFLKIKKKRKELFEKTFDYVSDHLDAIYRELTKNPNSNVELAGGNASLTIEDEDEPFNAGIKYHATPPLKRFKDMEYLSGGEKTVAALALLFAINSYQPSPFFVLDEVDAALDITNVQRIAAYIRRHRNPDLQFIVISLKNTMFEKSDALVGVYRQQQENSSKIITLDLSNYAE

[3] = target: T3, Scc1 with CFP or YFP at its C-terminus (S. cerevisiae, UniProt Q12158 1-566)
T3 sequence: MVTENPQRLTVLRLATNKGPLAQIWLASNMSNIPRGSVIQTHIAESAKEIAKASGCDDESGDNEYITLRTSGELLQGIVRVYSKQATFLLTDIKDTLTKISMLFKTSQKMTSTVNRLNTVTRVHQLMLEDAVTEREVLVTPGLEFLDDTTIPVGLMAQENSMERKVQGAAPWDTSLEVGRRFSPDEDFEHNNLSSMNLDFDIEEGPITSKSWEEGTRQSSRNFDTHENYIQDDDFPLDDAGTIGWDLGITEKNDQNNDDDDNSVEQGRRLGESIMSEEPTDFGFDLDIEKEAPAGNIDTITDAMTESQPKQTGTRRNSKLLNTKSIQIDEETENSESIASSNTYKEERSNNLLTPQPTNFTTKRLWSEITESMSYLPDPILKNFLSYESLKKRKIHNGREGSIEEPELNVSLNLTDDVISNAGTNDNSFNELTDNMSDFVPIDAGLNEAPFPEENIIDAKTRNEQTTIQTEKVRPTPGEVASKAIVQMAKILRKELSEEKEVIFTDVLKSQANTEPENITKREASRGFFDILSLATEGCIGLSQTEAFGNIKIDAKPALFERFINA

B1: Scc3 with CFP or YFP at its C-terminus (natural protein)
chain: MTAVRRSTRIRTKSQVIEEDYDDEQNTSAQHVESDKITAKTQHEEEEEQDTGESEESSSEDDYEDQDDDDYVDTATAKRKSRKRKPKSASNTSSKRQKKKPTSAQKSAVSHAPAYHRSKKDQDQYLEIAKDFQPTELFDILSTSEDVSIEELLREWLETYSENRDKFLQEFINLLLNCCGSVARVEDHDVHSNESSNETIGEIQLLFQRQKLHEFYLLISKENKKRKNFKMGPLYQNFAEFMTKLLEVANDLQLLYVESDEDDTQIVTGNLVLDLLTWLSSFSVCKIRCFRYISTLTLYLFQDYLTQQAVNLEKNYLAKLSKQLSLEEKKKRPNNKTLEKLESTIAETQGSKVVIDSIIDNIVKLCFVHRYKDVSDLIRSESMLHLSIWIKNYPEYFLKVTFLKYFGWLLSDNSVSVRLQVTKILPHLIIQNHNSKSTDNSAIRQVFERFKTKILEVAIRDVNLDVRIHSIQVLTEASSLGYLDDSEILIISSLMFDEEFDPFKTSSFNKRSKFLSTVAKFLARVIKEKFDEFIKTHEDLPKEVDGLEVGPVVQVGIFIKILNDSLIYHLKDCAEVDSRTKIRMLTQAAEFLSPYISTHLKTICNLLISDTESNELIQKLQNSANNNSDDEDVDDEELDITPLFPIDRNSTILYLNVFHGLCAGANNPKIQTKDSVKEIVLPLFYDLLNAASIESADILCPLLESFITFSLDDWISIGYETELKKITDKTIKAFMDSTIGNSKVDMKYDIFAKFIHHIHHFEKKELQEKFLNQIATLKIHLKKFLQEKMDPNNSRDDYKDLTCSLYELYINKLTILGRDYPIEVDEELLQLFLNNFVSRIPIMFQDFDDSTAQEINFKMLVLLATWNLEKWREIIEKVRDYENSISKDLRSVWKPIAAIIGRLNTLVISLAATNETFENINSLFYLKWSACTSLMDIIVAIKIFELKLPADATTWRYSMSEQFPFYLHDNASKVLLKIFLYLESLFAKQVDVQLERVADEDANLNDLPETGFFENIETEFLLFTVKLKGLMKLNILDERFASRVALNKEKLGPLFKKIVDDTIMENPEPNKKNIQKAKSNQTQREKAPLQPNSERETDHANTENNDPDIPMTIDLEPIEESSQNNSELAPIEEHPTVVDAIDNSDEITQD
- FRETR [1]: 1.37
- FRETR [2]: 1.35
- FRETR [3]: 1.4
